Source: IntAct's records for PubMed 31515488

B1: Coiled-coil domain-containing protein 172 (Homo sapiens), P0C7W6 (parent)
chain: MSLESLFQHIIFTEHQAEESRRLMREVRSEITRCREKIKKATEELNEEKIKLESKVQQFFEKSFFLQLLKAHENALEKQYSEITNHRNMLLQTFEAIKKQMIEEEDKFIKEITDFNNDYEITKKRELLMKENVKIEISDLENQANMLKSEMKSMEHDSSQLNELQKQKSELIQELFTLQRKLKVFEDEENESICTTKYLEAEKIKISEKPQNDTECLRLKKELELYKEDDMESVYEALQTEIEFLELTLAQKDLQESK
B2: Translocator protein (Homo sapiens), P30536 (parent)
chain: MAPPWVPAMGFTLAPSLGCFVGSRFVHGEGLRWYAGLQKPSWHPPHWVLGPVWGTLYSAMGYGSYLVWKELGGFTEKAVVPLGLYTGQLALNWAWPPIFFGARQMGWALVDLLLVSGAAAATTVAWYQVSPLAARLLYPYLAWLAFTTTLNYCVWRDNHGWRGGRRLPE
partner: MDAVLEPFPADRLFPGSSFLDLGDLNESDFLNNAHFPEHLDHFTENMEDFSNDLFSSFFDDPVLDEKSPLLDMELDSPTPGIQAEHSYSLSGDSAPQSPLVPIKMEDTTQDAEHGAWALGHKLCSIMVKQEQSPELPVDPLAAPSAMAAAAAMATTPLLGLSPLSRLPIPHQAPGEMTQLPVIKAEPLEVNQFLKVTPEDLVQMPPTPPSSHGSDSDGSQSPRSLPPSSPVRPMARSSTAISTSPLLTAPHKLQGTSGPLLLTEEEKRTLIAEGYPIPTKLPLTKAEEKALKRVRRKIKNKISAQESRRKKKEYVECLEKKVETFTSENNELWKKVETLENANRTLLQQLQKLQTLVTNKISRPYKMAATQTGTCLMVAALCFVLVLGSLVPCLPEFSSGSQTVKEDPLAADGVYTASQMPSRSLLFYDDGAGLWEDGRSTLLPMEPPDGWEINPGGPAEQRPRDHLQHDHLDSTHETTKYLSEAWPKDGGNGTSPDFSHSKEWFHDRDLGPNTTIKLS
B3: UBX domain-containing protein 6 (Homo sapiens), Q9BZV1 (parent)
chain: MKKFFQEFKADIKFKSAGPGQKLKESVGEKAHKEKPNQPAPRPPRQGPTNEAQMAAAAALARLEQKQSRAWGPTSQDTIRNQVRKELQAEATVSGSPEAPGTNVVSEPREEGSAHLAVPGVYFTCPLTGATLRKDQRDACIKEAILLHFSTDPVAASIMKIYTFNKDQDRVKLGVDTIAKYLDNIHLHPEEEKYRKIKLQNKVFQERINCLEGTHEFFEAIGFQKVLLPAQDQEDPEEFYVLSETTLAQPQSLERHKEQLLAAEPVRAKLDRQRRVFQPSPLASQFELPGDFFNLTAEEIKREQRLRSEAVERLSVLRTKAMREKEEQRGLRKYNYTLLRVRLPDGCLLQGTFYARERLGAVYGFVREALQSDWLPFELLASGGQKLSEDENLALNECGLVPSALLTFSWDMAVLEDIKAAGAEPDSILKPELLSAIEKLL
partner: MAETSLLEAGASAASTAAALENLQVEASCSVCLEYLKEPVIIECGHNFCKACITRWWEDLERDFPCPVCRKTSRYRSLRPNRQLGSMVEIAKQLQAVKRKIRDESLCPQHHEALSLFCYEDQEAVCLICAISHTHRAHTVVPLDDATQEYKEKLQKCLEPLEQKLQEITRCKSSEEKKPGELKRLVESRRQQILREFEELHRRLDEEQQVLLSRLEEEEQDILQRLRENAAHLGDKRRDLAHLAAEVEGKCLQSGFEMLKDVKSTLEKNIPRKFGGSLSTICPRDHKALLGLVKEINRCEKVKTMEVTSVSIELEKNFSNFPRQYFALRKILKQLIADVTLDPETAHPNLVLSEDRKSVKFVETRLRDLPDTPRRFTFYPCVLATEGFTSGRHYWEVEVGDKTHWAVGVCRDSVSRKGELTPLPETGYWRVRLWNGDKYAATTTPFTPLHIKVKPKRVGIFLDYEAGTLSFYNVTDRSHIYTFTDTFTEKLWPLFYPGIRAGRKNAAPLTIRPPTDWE
B4: Cyclin-D1-binding protein 1 (Homo sapiens), O95273 (parent)
chain: MASATAPAAAVPTLASPLEQLRHLAEELRLLLPRVRVGEAQETTEEFNREMFWRRLNEAAVTVSREATTLTIVFSQLPLPSPQETQKFCEQVHAAIKAFIAVYYLLPKDQGITLRKLVRGATLDIVDGMAQLMEVLSVTPTQSPENNDLISYNSVWVACQQMPQIPRDNKAAALLMLTKNVDFVKDAHEEMEQAVEECDPYSGLLNDTEENNSDNHNHEDDVLGFPSNQDLYWSEDDQELIIPCLALVRASKACLKKIRMLVAENGKKDQVAQLDDIVDISDEISPSVDDLALSIYPPMCHLTVRINSAKLVSVLKKALEITKASHVTPQPEDSWIPLLINAIDHCMNRIKELTQSELEL
partner: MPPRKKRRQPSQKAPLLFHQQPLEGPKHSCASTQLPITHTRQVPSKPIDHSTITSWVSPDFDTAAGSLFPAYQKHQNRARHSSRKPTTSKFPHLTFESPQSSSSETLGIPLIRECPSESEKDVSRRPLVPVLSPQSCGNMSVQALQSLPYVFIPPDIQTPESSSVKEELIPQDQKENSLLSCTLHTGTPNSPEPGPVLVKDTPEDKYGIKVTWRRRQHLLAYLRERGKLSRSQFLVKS
B5: Enhancer of mRNA-decapping protein 3 (Homo sapiens), Q96F86 (parent)
chain: MATDWLGSIVSINCGDSLGVYQGRVSAVDQVSQTISLTRPFHNGVKCLVPEVTFRAGDITELKILEIPGPGDNQHFGDLHQTELGPSGAGCQVGINQNGTGKFVKKPASSSSAPQNIPKRTDVKSQDVAVSPQQQQCSKSYVDRHMESLSQSKSFRRRHNSWSSSSRHPNQATPKKSGLKNGQMKNKDDECFGDDIEEIPDTDFDFEGNLALFDKAAVFEEIDTYERRSGTRSRGIPNERPTRYRHDENILESEPIVYRRIIVPHNVSKEFCTDSGLVVPSISYELHKKLLSVAEKHGLTLERRLEMTGVCASQMALTLLGGPNRLNPKNVHQRPTVALLCGPHVKGAQGISCGRHLANHDVQVILFLPNFVKMLESITNELSLFSKTQGQQVSSLKDLPTSPVDLVINCLDCPENVFLRDQPWYKAAVAWANQNRAPVLSIDPPVHEVEQGIDAKWSLALGLPLPLGEHAGRIYLCDIGIPQQVFQEVGINYHSPFGCKFVIPLHSA
B6: RING finger protein 11 (Homo sapiens), Q9Y3C5 (parent)
chain: MGNCLKSPTSDDISLLHESQSDRASFGEGTEPDQEPPPPYQEQVPVPVYHPTPSQTRLATQLTEEEQIRIAQRIGLIQHLPKGVYDPGRDGSEKKIRECVICMMDFVYGDPIRFLPCMHIYHLDCIDDWLMRSFTCPSCMEPVDAALLSSYETN
B7: Mitochondrial fission 1 protein (Homo sapiens), Q9Y3D6 (parent)
chain: MEAVLNELVSVEDLLKFEKKFQSEKAAGSVSKSTQFEYAWCLVRSKYNDDIRKGIVLLEELLPKGSKEEQRDYVFYLAVGNYRLKEYEKALKYVRGLLQTEPQNNQAKELERLIDKAMKKDGLVGMAIVGGMALGVAGLAGLIGLAVSKSKS
partner: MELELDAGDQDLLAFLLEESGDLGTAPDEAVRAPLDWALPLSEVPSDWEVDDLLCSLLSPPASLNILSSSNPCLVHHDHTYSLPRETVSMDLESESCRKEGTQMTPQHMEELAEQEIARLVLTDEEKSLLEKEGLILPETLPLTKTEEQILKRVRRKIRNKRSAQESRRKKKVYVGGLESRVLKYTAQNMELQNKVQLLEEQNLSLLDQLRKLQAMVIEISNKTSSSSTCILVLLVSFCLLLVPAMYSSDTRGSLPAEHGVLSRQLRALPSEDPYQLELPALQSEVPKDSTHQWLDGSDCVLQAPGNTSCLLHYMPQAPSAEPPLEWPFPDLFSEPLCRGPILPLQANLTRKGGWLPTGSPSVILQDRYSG
B8: Chorion-specific transcription factor GCMb (Homo sapiens), O75603 (parent)
chain: MPAAAVQEAVGVCSYGMQLSWDINDPQMPQELALFDQFREWPDGYVRFIYSSDEKKAQRHLSGWAMRNTNNHNGHILKKSCLGVVVCTQACTLPDGSRLQLRPAICDKARLKQQKKACPNCHSALELIPCRGHSGYPVTNFWRLDGNAIFFQAKGVHDHPRPESKSETEARRSAIKRQMASFYQPQKKRIRESEAEENQDSSGHFSNIPPLENPEDFDIVTETSFPIPGQPCPSFPKSDVYKATCDLATFQGDKMPPFQKYSSPRIYLPRPPCSYELANPGYTNSSPYPTLYKDSTSIPNDTDWVHLNTLQCNVNSYSSYERSFDFTNKQHGWKPALGKPSLVERTNHGQFQAMATRPYYNPELPCRYLTTPPPGAPALQTVITTTTKVSYQAYQPPAMKYSDSVREVKSLSSCNYAPEDTGMSVYPEPWGPPVTVTRAASPSGPPPMKIAGDCRAIRPTVAIPHEPVSSRTDEAETWDVCLSGLGSAVSYSDRVGPFFTYNNEDF
partner: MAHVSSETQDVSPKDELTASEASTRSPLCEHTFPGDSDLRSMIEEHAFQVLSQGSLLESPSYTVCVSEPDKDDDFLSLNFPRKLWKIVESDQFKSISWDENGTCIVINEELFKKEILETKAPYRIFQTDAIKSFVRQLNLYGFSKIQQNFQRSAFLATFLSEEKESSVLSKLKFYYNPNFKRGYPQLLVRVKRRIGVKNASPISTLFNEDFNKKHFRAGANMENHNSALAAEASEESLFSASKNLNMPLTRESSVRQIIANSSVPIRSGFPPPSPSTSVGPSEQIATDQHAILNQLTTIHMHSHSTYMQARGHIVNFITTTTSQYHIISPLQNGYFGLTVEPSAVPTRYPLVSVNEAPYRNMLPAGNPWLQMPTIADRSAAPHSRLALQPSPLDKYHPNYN
B9: Uridine diphosphate glucose pyrophosphatase NUDT22 (Homo sapiens), Q9BRQ3 (parent)
chain: MDPEVTLLLQCPGGGLPQEQIQAELSPAHDRRPLPGGDEAITAIWETRLKAQPWLFDAPKFRLHSATLAPIGSRGPQLLLRLGLTSYRDFLGTNWSSSAAWLRQQGATDWGDTQAYLADPLGVGAALATADDFLVFLRRSRQVAEAPGLVDVPGGHPEPQALCPGGSPQHQDLAGQLVVHELFSSVLQEICDEVNLPLLTLSQPLLLGIARNETSAGRASAEFYVQCSLTSEQVRKHYLSGGPEAHESTGIFFVETQNVQRLLETEMWAELCPSAKGAIILYNRVQGSPTGAALGSPALLPPL
partner: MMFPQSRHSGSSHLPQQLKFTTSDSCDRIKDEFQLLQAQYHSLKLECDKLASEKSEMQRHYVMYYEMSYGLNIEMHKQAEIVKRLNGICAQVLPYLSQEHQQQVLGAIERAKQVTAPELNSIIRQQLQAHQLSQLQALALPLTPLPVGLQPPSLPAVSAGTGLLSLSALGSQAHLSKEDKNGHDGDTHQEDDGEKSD

Variants of: B1
Settings: with fa13c_human FAM13C

Row | effect of a mutation on the interaction | Variant
1 | disrupting interaction strength | F60L

Variants of: B1
Settings: with dctn2_human DCTN2, Q13561
Chain of dctn2_human DCTN2, Q13561 (Q13561 whole entry): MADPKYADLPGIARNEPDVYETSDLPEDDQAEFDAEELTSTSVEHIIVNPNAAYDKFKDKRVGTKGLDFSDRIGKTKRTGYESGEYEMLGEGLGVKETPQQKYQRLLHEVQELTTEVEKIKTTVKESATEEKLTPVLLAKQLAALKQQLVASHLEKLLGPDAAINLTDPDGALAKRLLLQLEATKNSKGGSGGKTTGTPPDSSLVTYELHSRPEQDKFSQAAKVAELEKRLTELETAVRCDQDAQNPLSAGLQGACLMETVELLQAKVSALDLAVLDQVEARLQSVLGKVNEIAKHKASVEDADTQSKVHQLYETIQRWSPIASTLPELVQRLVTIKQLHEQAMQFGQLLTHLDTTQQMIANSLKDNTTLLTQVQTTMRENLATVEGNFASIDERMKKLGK

Row | effect of a mutation on the interaction | Variant
2 | disrupting interaction strength | F60L

Variants of: B1
Settings: with smce1_human SMARCE1, Q969G3
Chain of smce1_human SMARCE1, Q969G3 (Q969G3 whole entry): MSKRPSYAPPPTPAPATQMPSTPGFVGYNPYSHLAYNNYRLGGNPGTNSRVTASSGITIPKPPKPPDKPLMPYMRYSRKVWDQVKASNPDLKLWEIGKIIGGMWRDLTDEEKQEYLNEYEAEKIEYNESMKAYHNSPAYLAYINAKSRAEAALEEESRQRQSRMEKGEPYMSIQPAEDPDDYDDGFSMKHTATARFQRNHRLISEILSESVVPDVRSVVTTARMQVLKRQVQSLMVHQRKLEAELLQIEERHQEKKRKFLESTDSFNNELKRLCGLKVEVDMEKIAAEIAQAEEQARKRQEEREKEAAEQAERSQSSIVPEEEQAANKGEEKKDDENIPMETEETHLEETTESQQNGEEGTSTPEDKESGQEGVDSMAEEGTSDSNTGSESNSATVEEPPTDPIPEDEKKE

Row | effect of a mutation on the interaction | Variant
3 | disrupting interaction strength | F60L

Variants of: B2
Settings: with cr3l1_human CREB3L1, Q96BA8

Row | effect of a mutation on the interaction | Variant
4 | disrupting interaction strength | A119V

Variants of: B3
Settings: with tri39_human TRIM39, Q9HCM9

Row | effect of a mutation on the interaction | Variant
5 | with no effect | A361V

Variants of: B4
Settings: with rhno1_human RHNO1, Q9BSD3

Row | effect of a mutation on the interaction | Variant
6 | disrupting interaction strength | I277T

Variants of: B5
Settings: with ddx6_human DDX6, P26196
Chain of ddx6_human DDX6, P26196 (P26196 whole entry): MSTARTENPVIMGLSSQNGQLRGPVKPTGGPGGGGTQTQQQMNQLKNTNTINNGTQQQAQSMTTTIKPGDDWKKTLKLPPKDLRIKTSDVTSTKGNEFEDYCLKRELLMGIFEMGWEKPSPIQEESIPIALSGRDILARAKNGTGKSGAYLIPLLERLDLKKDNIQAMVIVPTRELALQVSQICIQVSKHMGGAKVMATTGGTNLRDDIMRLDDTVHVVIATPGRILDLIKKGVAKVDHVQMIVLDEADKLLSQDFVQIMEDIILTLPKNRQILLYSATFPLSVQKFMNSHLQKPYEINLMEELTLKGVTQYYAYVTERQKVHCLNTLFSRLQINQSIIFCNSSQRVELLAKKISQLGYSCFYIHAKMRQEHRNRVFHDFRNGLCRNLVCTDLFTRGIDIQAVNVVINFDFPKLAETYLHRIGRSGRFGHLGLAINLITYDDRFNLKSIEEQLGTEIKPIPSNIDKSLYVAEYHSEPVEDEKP

Row | effect of a mutation on the interaction | Variant
7 | with no effect | R232G

Variants of: B6
Settings: with ub2d4_human UBE2D4, Q9Y2X8
Chain of ub2d4_human UBE2D4, Q9Y2X8 (Q9Y2X8 whole entry): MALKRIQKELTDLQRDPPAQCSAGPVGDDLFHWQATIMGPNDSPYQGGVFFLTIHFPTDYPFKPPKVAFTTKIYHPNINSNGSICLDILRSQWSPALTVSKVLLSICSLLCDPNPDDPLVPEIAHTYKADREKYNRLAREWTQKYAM

Row | effect of a mutation on the interaction | Variant
8 | with no effect | R97W

Variants of: B7
Settings: with creb3_human CREB3, O43889

Row | effect of a mutation on the interaction | Variant
9 | with no effect | V124M

Variants of: B8
Settings: with hsfy1_human HSFY1, Q96LI6

Row | effect of a mutation on the interaction | Variant
10 | with no effect | D53N

Variants of: B9
Settings: with tle5_human TLE5, Q08117

Row | effect of a mutation on the interaction | Variant
11 | with no effect | G36C
